# Values quoted from earlier work in patent US20110300070A1, “BIOMOLECULE COMPLEXES AS CONTRAST AGENTS IN POSITRON EMISSION TOMOGRAPHY (PET) BASED METHODS FOR THE ASSESSMENT OF ORGAN FUNCTION” (priority 2008, published 2011).
# B1: cystatin C: cysteine protease inhibitor, about 120 amino acids, about 13 kD (protein, UniProt P01034 27-146, looked up)
# Cystatin-C: SSPGKPPRLVGGPMDASVEEEGVRRALDFAVGEYNKASNDMYHSRALQVVRARKQIVAGVNYFLDVELGRTTCTKTQPNLDNCPFHDQPHLKRKAFCSFQIYAVPWQGTMTLSKSTCQDA
# Test system: proximal tubular cells
# Settings: in vivo
Molecule,time window where the filtered amount of the tracer is still quantitatively retained in the proximal tubular cells,optimal clearance period
"cytochrome C: heme protein, about 100 amino acids, about 12 kD",about 5 minutes,–
B1,about 5 minutes,less than 5 minutes
